Kd data for 18 molecules are collected here from patent US20030068675, “Position dependent recognition of GNN nucleotide triplets by zinc fingers” (published 2003).

What all share (experiment): EMSA
Common to all, as to settings: tags: MBP fusion
A general note: A gel shift assay detects complexes by their altered migration in electrophoresis.

One series deals with T1, ZFP SBS#720 (synthetic).
T1 chain: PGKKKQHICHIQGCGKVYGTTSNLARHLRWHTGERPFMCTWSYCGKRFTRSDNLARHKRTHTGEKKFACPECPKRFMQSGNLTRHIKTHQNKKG
In outline:
(§1)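 Purified ZFP was titrated against labeled double-stranded target (1 nM or lower, at least 10-fold below expected Kd) carrying the natural binding site with flanks. Binding buffer was 10 mM Tris pH 7.5, 100 mM KCl, 1 mM MgCl2, 0.1 mM ZnCl2, 5 mM DTT, 10% glycerol, 0.02% BSA, with equilibration for at least 45 min. Bound and free target were separated on a 10% polyacrylamide gel.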

In another series the target is ZFP SBS#726 (synthetic). Summed up:
as §1

The target of another series is T2, ZFP SBS#747 (synthetic).
T2 chain: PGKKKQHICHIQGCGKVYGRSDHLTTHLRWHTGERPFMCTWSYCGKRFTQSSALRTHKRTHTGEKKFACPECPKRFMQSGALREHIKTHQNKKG
In outline: as §1

The target in the next series is ZFP SBS#725 (synthetic). In outline: as §1
Sequence of ZFP SBS#725 (synthetic) (chain, as listed by the source): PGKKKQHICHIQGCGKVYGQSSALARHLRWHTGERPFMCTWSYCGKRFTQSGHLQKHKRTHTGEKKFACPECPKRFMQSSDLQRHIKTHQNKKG
A further series addresses T3, ZFP SBS#430 (synthetic).
T3 chain: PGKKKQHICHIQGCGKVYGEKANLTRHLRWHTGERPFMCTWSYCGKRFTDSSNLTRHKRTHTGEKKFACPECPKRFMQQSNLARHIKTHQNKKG
Summed up: as §1

In another series the target is T4, ZFP SBS#568 (synthetic).
T4 chain: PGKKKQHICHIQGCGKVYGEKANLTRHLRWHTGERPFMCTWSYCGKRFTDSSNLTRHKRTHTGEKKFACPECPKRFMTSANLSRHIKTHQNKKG
In outline: as §1

The target of another series is T5, ZFP SBS#722 (synthetic).
T5 chain: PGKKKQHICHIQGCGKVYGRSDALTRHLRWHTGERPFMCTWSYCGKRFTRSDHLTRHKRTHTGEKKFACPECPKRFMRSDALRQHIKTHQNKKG
Summed up: as §1

Another series has as its target ZFP SBS#731 (synthetic). In outline:
as §1

The target of the next series is ZFP SBS#746 (synthetic). Summed up: as §1
Sequence of ZFP SBS#746 (synthetic) (chain, as listed by the source): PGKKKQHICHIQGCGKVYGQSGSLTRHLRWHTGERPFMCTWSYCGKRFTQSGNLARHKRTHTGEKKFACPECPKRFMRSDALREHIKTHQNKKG
In the next series the target is ZFP SBS#734 (synthetic). Summed up:
as §1

The next series deals with T6, ZFP SBS#757 (synthetic, UniProt P08047).
T6 chain: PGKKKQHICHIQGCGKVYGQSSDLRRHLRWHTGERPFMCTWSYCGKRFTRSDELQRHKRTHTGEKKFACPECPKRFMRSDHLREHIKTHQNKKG
Summed up: as §1

Another series addresses T7, ZFP SBS#758 (synthetic, UniProt P08047).
T7 chain: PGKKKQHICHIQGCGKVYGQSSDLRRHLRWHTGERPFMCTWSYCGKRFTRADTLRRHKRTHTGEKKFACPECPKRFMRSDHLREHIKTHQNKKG
In outline:
as §1

For the next series, the target named is ZFP SBS#733 (synthetic). Summed up: as §1
The target of another series is ZFP SBS#732 (synthetic). Summed up:
as §1

The next series has as its target T8, ZFP SBS#744 (synthetic).
T8 chain: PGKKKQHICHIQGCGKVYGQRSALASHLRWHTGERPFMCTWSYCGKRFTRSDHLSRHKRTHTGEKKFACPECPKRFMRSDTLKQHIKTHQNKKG
Summed up:
as §1

The next series concerns the target T9, ZFP SBS#742 (synthetic).
T9 chain: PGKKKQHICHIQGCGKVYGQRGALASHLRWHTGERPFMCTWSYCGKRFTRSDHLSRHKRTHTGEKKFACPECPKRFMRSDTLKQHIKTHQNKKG
Summed up:
as §1

A further series concerns the target T10, ZFP SBS#745 (synthetic).
T10 chain: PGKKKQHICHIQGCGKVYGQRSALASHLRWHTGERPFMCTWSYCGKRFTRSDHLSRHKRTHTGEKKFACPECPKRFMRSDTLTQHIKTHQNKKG
In outline:
as §1

In the next series the target is T11, ZFP SBS#743 (synthetic).
T11 chain: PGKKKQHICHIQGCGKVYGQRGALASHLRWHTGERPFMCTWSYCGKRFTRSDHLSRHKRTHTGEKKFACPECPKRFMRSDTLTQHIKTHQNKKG
In outline: as §1

The target in a further series is ZFP SBS#704 (synthetic). In outline: as §1
Sequence of ZFP SBS#704 (synthetic) (chain, as listed by the source): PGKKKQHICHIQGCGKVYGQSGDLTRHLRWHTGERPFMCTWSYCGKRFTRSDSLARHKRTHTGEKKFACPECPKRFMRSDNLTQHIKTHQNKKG
The target in another series is T12, ZFP SBS#740 (synthetic).
T12 chain: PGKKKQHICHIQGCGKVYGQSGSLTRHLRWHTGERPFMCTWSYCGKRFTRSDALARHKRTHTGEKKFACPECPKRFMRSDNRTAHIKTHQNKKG
In outline: as §1

Another series has as its target ZFP SBS#607 (synthetic). In outline:
as §1

The next series addresses ZFP SBS#741 (synthetic). In outline:
as §1

The next series addresses T13, ZFP SBS#719 (synthetic).
T13 chain: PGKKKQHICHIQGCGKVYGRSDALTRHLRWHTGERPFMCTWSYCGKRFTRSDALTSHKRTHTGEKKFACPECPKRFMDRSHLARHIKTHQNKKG
In outline: as §1

In a further series the target is T14, ZFP SBS#724 (synthetic).
T14 chain: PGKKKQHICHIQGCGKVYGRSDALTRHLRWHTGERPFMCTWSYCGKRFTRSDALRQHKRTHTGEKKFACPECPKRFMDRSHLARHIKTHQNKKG
Summed up:
as §1

In the next series the target is T15, ZFP SBS#736 (synthetic, UniProt P08047).
T15 chain: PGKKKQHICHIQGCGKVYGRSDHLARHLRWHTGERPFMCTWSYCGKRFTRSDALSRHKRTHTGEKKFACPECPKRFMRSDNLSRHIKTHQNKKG
Summed up: as §1

In a further series the target is T16, ZFP SBS#752 (synthetic, UniProt P08047).
T16 chain: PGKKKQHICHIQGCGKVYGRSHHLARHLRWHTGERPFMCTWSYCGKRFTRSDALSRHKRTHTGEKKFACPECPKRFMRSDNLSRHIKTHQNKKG
In outline:
as §1

A further series has as its target ZFP SBS#427 (synthetic). Summed up: as §1
The target in a further series is ZFP SBS#374 (synthetic). Summed up: as §1
Sequence of ZFP SBS#374 (synthetic) (chain, as listed by the source): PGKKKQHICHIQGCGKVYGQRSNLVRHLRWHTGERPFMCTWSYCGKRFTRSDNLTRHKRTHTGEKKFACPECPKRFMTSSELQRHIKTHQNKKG
The target in another series is T17, ZFP SBS#728 (synthetic).
T17 chain: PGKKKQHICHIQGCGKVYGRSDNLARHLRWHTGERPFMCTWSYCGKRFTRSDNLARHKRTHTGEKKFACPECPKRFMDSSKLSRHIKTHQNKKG
Summed up:
as §1

The next series deals with ZFP SBS#751 (synthetic). In outline: as §1
Sequence of ZFP SBS#751 (synthetic) (chain, as listed by the source): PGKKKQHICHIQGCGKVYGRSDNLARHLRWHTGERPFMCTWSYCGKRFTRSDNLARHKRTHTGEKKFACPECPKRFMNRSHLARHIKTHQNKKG
The target of a further series is T18, ZFP SBS#713 (synthetic).
T18 chain: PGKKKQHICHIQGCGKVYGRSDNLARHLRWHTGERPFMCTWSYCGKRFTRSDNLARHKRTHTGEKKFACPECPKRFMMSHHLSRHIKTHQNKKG
In outline: as §1

A further series has as its target T19, ZFP SBS#712 (synthetic).
T19 chain: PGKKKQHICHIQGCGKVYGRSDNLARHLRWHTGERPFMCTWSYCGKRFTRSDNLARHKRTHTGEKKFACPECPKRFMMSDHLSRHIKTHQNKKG
In outline: as §1

In the next series the target is T20, ZFP SBS#567 (synthetic).
T20 chain: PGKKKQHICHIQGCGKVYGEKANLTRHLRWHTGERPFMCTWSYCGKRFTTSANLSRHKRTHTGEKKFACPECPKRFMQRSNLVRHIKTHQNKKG
Summed up: as §1

A further series has as its target ZFP SBS#428 (synthetic). In outline:
as §1

A further series deals with ZFP SBS#429 (synthetic). In outline: as §1
Sequence of ZFP SBS#429 (synthetic) (chain, as listed by the source): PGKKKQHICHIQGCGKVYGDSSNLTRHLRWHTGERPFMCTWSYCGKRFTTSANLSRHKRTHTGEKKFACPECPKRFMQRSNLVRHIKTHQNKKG

Sequence of ZFP SBS#741 (synthetic) (chain, as listed by the source): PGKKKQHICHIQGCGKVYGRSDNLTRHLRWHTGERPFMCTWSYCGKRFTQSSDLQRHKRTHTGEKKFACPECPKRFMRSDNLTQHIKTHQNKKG
Sequence of ZFP SBS#428 (synthetic) (chain, as listed by the source): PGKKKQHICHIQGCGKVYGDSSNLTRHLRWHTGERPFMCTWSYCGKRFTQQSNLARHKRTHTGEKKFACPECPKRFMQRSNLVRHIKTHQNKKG
Sequence of ZFP SBS#726 (synthetic) (chain, as listed by the source): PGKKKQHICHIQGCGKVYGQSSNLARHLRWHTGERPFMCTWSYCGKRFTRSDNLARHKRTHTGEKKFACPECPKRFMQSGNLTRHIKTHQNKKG
Sequence of ZFP SBS#732 (synthetic) (chain, as listed by the source): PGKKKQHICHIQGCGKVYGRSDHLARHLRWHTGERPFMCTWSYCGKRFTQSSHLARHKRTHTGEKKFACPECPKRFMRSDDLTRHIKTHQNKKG
Sequence of ZFP SBS#731 (synthetic) (chain, as listed by the source): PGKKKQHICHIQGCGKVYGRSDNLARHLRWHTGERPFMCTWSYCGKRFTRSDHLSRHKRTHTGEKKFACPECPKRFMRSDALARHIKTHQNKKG
Sequence of ZFP SBS#734 (synthetic) (chain, as listed by the source): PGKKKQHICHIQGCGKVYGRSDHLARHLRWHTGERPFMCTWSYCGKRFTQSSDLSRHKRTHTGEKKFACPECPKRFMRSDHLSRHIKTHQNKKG
Sequence of ZFP SBS#427 (synthetic) (chain, as listed by the source): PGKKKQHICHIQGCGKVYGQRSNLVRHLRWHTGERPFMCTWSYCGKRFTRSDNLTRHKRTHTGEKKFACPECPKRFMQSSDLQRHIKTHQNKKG

B1: GAAGAGGATG (dsDNA)
DNA 1: GAAGAGGATG
DNA 2: CATCCTCTTC
For orientation: Kd means a measure of binding affinity in units of concentration. B1: the Kd with ZFP SBS#720 stood at 1.6 nM; with ZFP SBS#726, 1.5 nM.

B2: CTATTTTGGG (dsDNA)
DNA 1: CTATTTTGGG
DNA 2: CCCAAAATAG
B2: the Kd with ZFP SBS#747 was 2000 nM.

B3: GCTTGAGTTA (dsDNA)
DNA 1: GCTTGAGTTA
DNA 2: TAACTCAAGC
Molecule B3 registered a Kd with ZFP SBS#725 of 3000 nM.

B4: GATGACGAC (dsDNA)
DNA 1: GATGACGAC
DNA 2: GTCGTCATC
For B4, the Kd with ZFP SBS#430 was 250 nM; in the series with ZFP SBS#568 it was 300 nM.

B5: ATGGGGGTGG (dsDNA)
DNA 1: ATGGGGGTGG
DNA 2: CCACCCCCAT
In the case of B5, binding with ZFP SBS#722 was put at a Kd of 0.7 nM.

B6: GTGGGGGAGA (dsDNA)
DNA 1: GTGGGGGAGA
DNA 2: TCTCCCCCAC
B6: the Kd with ZFP SBS#731 amounted to 12 nM. That is a double-digit nanomolar value.

B7: CTGGAAGCAT (dsDNA)
DNA 1: CTGGAAGCAT
DNA 2: ATGCTTCCAG
In the series with ZFP SBS#746, B7 displayed a Kd of 2.07 nM.

B8: GGGGCTGGGT (dsDNA)
DNA 1: GGGGCTGGGT
DNA 2: ACCCAGCCCC
Regarding B8, the Kd in the series with ZFP SBS#734 was 0.25 nM.

B9: CGGGCGGCTG (dsDNA)
DNA 1: CGGGCGGCTG
DNA 2: CAGCCGCCCG
As to B9, the results for the Kd with ZFP SBS#757 and with ZFP SBS#758 were 14.5 nM and 16.5 nM, respectively.

B10: GCGGGTGGGG (dsDNA)
DNA 1: GCGGGTGGGG
DNA 2: CCCCACCCGC
Consider B10, for which the Kd with ZFP SBS#733 worked out at 0.32 nM; with ZFP SBS#732, 22.5 nM.

B11: ACGGGGTTAT (dsDNA)
DNA 1: ACGGGGTTAT
DNA 2: ATAACCCCGT
As to B11, the Kd with ZFP SBS#744 came to 8.33 nM; with ZFP SBS#742 it was 29 nM; with ZFP SBS#745, 12.5 nM; with ZFP SBS#743 it was 10 nM.

B12: AAGGTGGCAG (dsDNA)
DNA 1: AAGGTGGCAG
DNA 2: CTGCCACCTT
As for B12, the Kd in the series with ZFP SBS#704 came out at 5 nM; in the series with ZFP SBS#740 it was 12.5 nM; in the series with ZFP SBS#607 it was 6.5 nM.

B13: AAGGCTGAGA (dsDNA)
DNA 1: AAGGCTGAGA
DNA 2: TCTCAGCCTT
Molecule B13 returned a Kd with ZFP SBS#741 of 15 nM.

B14: GGCATGGTGG (dsDNA)
DNA 1: GGCATGGTGG
DNA 2: CCACCATGCC
Turning to B14, the Kd with ZFP SBS#719 amounted to 20 nM; in the series with ZFP SBS#724 it was 2.5 nM.

B15: GAGGTGGGGA (dsDNA)
DNA 1: GAGGTGGGGA
DNA 2: TCCCCACCTC
Turning to B15, the Kd in the series with ZFP SBS#736 stood at 0.47 nM; with ZFP SBS#752 it was 31 nM.

B16: GCTGAGGAA (dsDNA)
DNA 1: GCTGAGGAA
DNA 2: TTCCTCAGC
On to B16, for which the Kd with ZFP SBS#427 came out at 1 nM; with ZFP SBS#374, 3.3 nM.

B17: GGTGAGGAGT (dsDNA)
DNA 1: GGTGAGGAGT
DNA 2: ACTCCTCACC
Consider B17, for which the Kd worked out at 15 nM with ZFP SBS#728, 7 nM with ZFP SBS#751, 0.15 nM with ZFP SBS#713 and 9.5 nM in the series with ZFP SBS#712.

B18: GAAGATGAC (dsDNA)
DNA 1: GAAGATGAC
DNA 2: GTCATCTTC
As to B18, the Kd with ZFP SBS#567 is 47.5 nM; in the series with ZFP SBS#428, 120 nM; with ZFP SBS#429, 50 nM.
